Our source for the Kd values is patent US20250090700A1 (published 2025).

By Kd is commonly meant the concentration at which binding is half-saturated. Lower therefore signals tighter binding.

For this assay, the target named is synthetic sugar epitope. The assay is described as follows: Biacore (SPR).

B1: IgG1 (antibody, V domains shown)
VH: QVQLVQSGAEVKKPGASVKVSCKASGFSFTTYWITWVRQAPGQGLEWIGMIHPSDAETRLSQTFKDKATLTADKSTSTAYMELSSLRSEDTAVYYCARDFDVWGQGTLVTVSS
VL: DVVMTQSPLSLPVTLGQPASISCRSSQNIVHQNGQTYLGWYLQKPGQSPQLLIFRVSNRFSGVPDRFSGSGSGTDFTLKISRVEAEDVGVYYCFQGSHIPRTFGQGTRLEIK
For the molecule B1, binding was put at a Kd of 3.9 nM.

B2: IgG4PE (antibody, V domains shown)
VH: B1 VH
VL: B1 VL
For the molecule B2, the Kd was 3.1 nM.
